19 sequences from the supplement of paper PMC9170038 can be followed below.

In series [1] the test system is MS2 coat protein. Briefly: apparent KD of MS2 coat protein, switch OFF state (with FMN for OFF switches, without FMN for ON switches); designed switch direction (-1 OFF switch, 1 ON switch): 1; higher = weaker reporter binding. Particulars: FMN input: 0 or 200 uM; Eterna round: R93 (includes R88 designs). The method in brief: (§1)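 Normalised binding curves from single clusters were fitted, and the median fit for each design is given as apparent KD. The clusters held designed RNA switches transcribed on-chip from Illumina sequencing clusters. These were titrated with SNAP-549-labelled MS2 coat protein (twofold steps from 0.7 or 1.5 nM to 3 µM, 0.8–1.5 h to 10–20 min per step) in 100 mM Tris-HCl pH 7.5, 80 mM KCl, 4 mM MgCl2, without or with constant ligand.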

Series [2] relates to MS2 coat protein. Briefly: apparent KD of MS2 coat protein, switch ON state; designed switch direction (-1 OFF switch, 1 ON switch): 1; higher = weaker reporter binding. Conditions: FMN input: 0 or 200 uM; Eterna round: R93 (includes R88 designs). The method in brief: as §1

With “AAUAUAUUAAGUGAGGAUAUCAUAGAAAAAACAUGAGGAUCACCCAUGUGGGAAACCUGGUCGGGUGAGAAGGCACUUAAUAUAU [Samwise Clockwise 29 - Jieux - Same State 2]”, the “apparent KD of MS2 coat protein” value came to 0.704 µM with MS2 coat protein [1] and 0.0714 µM with MS2 coat protein [2].
In the same order, the values of “AAUAAACAUGAGGAUCACCCAUGUUUUAAUAGUUGAGGAUAUACGGGUGAAAAUAGCAUAGUAGAAGGCGAGUGUA [SameState1 Malc#13]” are 0.0368 µM and 0.0312 µM.
With “AAUAUACAUGAGGAUCACCCAUGUUUUAAUAGCUGAGGAUAUACGGGUGAAAAUAGCAUAGUAGAAGGCGGGUGUA [SameState1 Malc#9]”, the “apparent KD of MS2 coat protein” value was determined as 0.08 µM in the series on MS2 coat protein [1] and 0.0922 µM in the series on MS2 coat protein [2].
In the same order, the values of “AGGAAACAUGAGGAUCACCCAUGUAAGAUAAACACAGGAUAUGCGAAAAGAAACAAAGAAGCAGAAGGGUGAAGAA [75%, Ex5 sub 1, 1]” are 0.0356 µM and 0.0206 µM.
Take “AAAAAAGAUCGAGAGGAUAUCCGAGUGGUAACAUGAGGAUCACCCAUGUGAAGAAAGGAACAUGAGGAGAAGGCUCGAUCAAAAA [viburnum 4]”: the “apparent KD of MS2 coat protein” value with MS2 coat protein [1] worked out at 0.0187 µM; in the series on MS2 coat protein [2], 0.00785 µM.
Take “AAGAGACAUGAGGAUCACCCAUGUAGGAUUAUGGGAGGAUAUACAAAGACGAGAGUCAGAGUAGAAGGCCUAGGAG [salish99-ss1-131(!)]”: the entries for the “apparent KD of MS2 coat protein” value in the series with MS2 coat protein [1] and in the series with MS2 coat protein [2] were 0.0574 µM and 0.0232 µM, respectively.
In the same order, the values of “AGAAAAAAAACGCAGGAUAUCCAAAAGAAAACAUGAGGAUCACCCAUGUAAAAGAAAAUAAAAUGGGAGAAGGGCGAAAAAAAGA [Mat - Same State 2 - Eli mod - D93]” are 0.0185 µM and 0.00991 µM.
In the case of “AAAUAACAUGAGGAUCACCCAUGUCAAAUAAAUCGAGGAUAUGGGCCCGGGUUCCGGGAGCCAGAAGGCGAAAAGA [Teledimaqu]”, the “apparent KD of MS2 coat protein” value in the series with MS2 coat protein [1] came out at 0.0416 µM; with MS2 coat protein [2], 0.0169 µM.
Consider “UUUAAUUAUACGAAGGAUAUCGGUAAUUAGACAUGAGGAUCACCCAUGUUAUAUGGUUAAAUAUUCGAGAAGGUCGAGGGUGAAA [JR_SS002_Sub506]”, for which the “apparent KD of MS2 coat protein” value came out at 0.0321 µM in the series on MS2 coat protein [1] and 0.0302 µM with MS2 coat protein [2].
Consider “AUUACAUCUAGUUAGGAUAUCAGAUGUAAGACAUGAGGAUCACCCAUGUCCUAAGAAUAGGUAACUGAGAAGGAACAGGGAGUAU [JR_SS002_Sub418]”, for which the figures for the “apparent KD of MS2 coat protein” value in the series with MS2 coat protein [1] and with MS2 coat protein [2] were 0.0268 µM and 0.0234 µM, respectively.
The like results for “AGGAGACAUGAGGAUCACCCAUGUGAGAAGAGGCGAGGAUAUCGAAAGAAAGAAGAGAAACGAGAAGGCGCGAGUA [salish99-SS1-018]” were, in that order, 0.0408 µM and 0.0249 µM.
In the same order, the values of “AAAAAAAAAAGGCAGGAUAUUCAAAAAAAAACAUGAGGAUCACCCAUGUAAAAAAAAAAAAAAUGGAAGAAGGGCCAAAAAAAAAA [Fiskers Same State 2 D1]” are 0.028 µM and 0.0188 µM.
The like results for “AAUAACAAAAGAAAGGAUAUGCGCACAGGAACAUGAGGAUCACCCAUGUGCCGCCAAGGCGGAUAGCAGAAGGUUCACACGCAUA [Default title]” were, in that order, 0.0201 µM and 0.0194 µM.
Consider “AGGAAACAUGAGGAUCACCCAUGUAAAAAUAUGGGAGGAUAUACGAAGACGAAAGUAAGAGUAGAAGGCCUAAAAG [Garnet 9]”, for which the “apparent KD of MS2 coat protein” value in the series on MS2 coat protein [1] was found to be 0.0906 µM; in the series with MS2 coat protein [2], 0.0239 µM.
The like results for “AAAGAAAAACUAGAGGAUAUCUAGAUGAUAACAUGAGGAUCACCCAUGUGAAGAAAGGAAUAUAGGGAGAAGGCUAGAAGAAAAA [JL Nando mod 20]” were, in that order, 0.0286 µM and 0.0218 µM.
In the same order, the values of “AAUAAAAAUAGUUAGGAUAUGAGAAUUAAGACAUGAGGAUCACCCAUGUAAUUAAAACAAGUAAAUCAGAAGGGACAGGGUGAAA [JR_SS002_Sub204]” are 0.046 µM and 0.0994 µM.
As to “AAUAGGAAGAGAGAGGAUAUCCAAAGGAAAACAUGAGGAUCACCCAUGUAAAAGGUAGGAAAUUGGGAGAAGGCUCAAGAGAGAG [salish99-ss2-073]”, the “apparent KD of MS2 coat protein” value turned out to be 0.0399 µM in the series on MS2 coat protein [1] and 0.00955 µM in the series with MS2 coat protein [2].
With “UGGAGACAUGAGGAUCACCCAUGUGAGAAGAGGCGAGGAUAUCGAAAGAAAGAAGAGAAACGAGAAGGCGCGAGUA [salish99-SS1-038]”, the “apparent KD of MS2 coat protein” value in the series on MS2 coat protein [1] is 0.0393 µM; in the series with MS2 coat protein [2], 0.0321 µM.
The like results for “GGAAGACAUGAGGAUCACCCAUGUGGGAUUAUGGGAGGAUAUACAAAGACGAGAGUCAGAGUAGAAGGCCUAGGAA [salish99-ss1-120(!)]” were, in that order, 0.0791 µM and 0.0286 µM.
